Laboratory results reported in patent publication US20200206304A1, “METHODS AND COMPOSITIONS FOR EFFICIENT DELIVERY THROUGH MULTIPLE BIO BARRIERS” (Cedars-Sinai Medical Center, priority 2017, published 2020).
Read-outs that look alike come from different tables or passages of the source.

Columns and labels:
[1] = tested on: glioblastoma GL261; conditions: mouse, in vivo
[2] = Dynamic light scattering, hydrodynamic diameter and PDI; type: physicochemical; conditions: DLS in PBS, conjugates without attached rhodamine
Description: Dynamic Light Scattering: Synthesized conjugates were characterized using a Zetasizer Nano ZS90 (Malvern Instruments, Malvern, UK). Ten microliter aliquots of nanoconjugate samples were diluted in 0.99 mL PBS and were measured 3 times using a clear cuvette. Data represent the mean of three measurements and polydispersity index.

[3] = tested on: brain cells; conditions: cortex
Description: For the particulate fluorescence analysis, images were converted to binary images, and then 5 ROIs 20*20 μm^2 were drawn per image. The area of each particle on the ROI was measured using the Image) particle analysis tool, where each particle was measured separately. Sizes were then summarized, sorted, and further analyzed using Minitab18 software (Minitab, Inc, State College, Pa., USA). Particulate areas observed between different conditions were compared via a one-way ANOVA combined with post-hoc Tukey tests to test differences between each experimental group.
A more reliable method to separate the particulate from the cellular fluorescence was reasoned to be by adjusting the levels of the image and converting it to a binary image, allowing the detection of only particulates eliminating interference of the diffused background. FIGS. 29A-29D illustrate intracellular fluorescence of mini nanodrugs.
Each ROI was converted to binary (black and white) image and the area and number of particles were quantified. 3 images per brain area were tested for 3 mice per group.
The particle content (example of ROI in FIG. 29A) then was measured. The average size of the particulate fluorescence is a proxy to estimate the intracellular load of fluorescent nanoconjugates following their injections. An example of such an analysis is shown in FIG. 29A: the yellow squares indicate regions of interest that were used to quantify particulate fluorescence. FIGS. 29B-29C summarize the average size of the intracellular fluorescence particles in the cortex ([…]), midbrain (FIG. 29C), and the hippocampus (FIG. 29C).

[4] = 0.5, 1, 2 and 4 hours after injection
[5] = tested on: blood-brain barrier (BBB); assay: BBB penetration: nanoconjugate fluorescence in brain parenchyma of healthy mice by optical imaging
Description: Healthy Mice: Eight to nine-week-old BALB/C and BLACK-6 mice were obtained from Charles River Laboratories (Wilmington, Mass., USA). […] Three to four mice of each sex were used for each experiment.
Nanoconjugates were dissolved freshly in PBS (pH 7.4) prior to each experiment and injected intravenously (i.v.) into the lateral tail vein. Mice were anesthetized with isoflurane beforehand, and their tails were briefly warmed to facilitate injections. […] The drug injection volume was kept constant at 150 μL. After each injection, mice were promptly returned to their cages. Eight to nine-week-old B116 mice were obtained from Charles River Laboratories (Wilmington, Mass., USA). […] Three to four mice of each sex were used for each experiment. Nanoconjugates were dissolved freshly in PBS (pH 7.4) prior to each experiment and injected intravenously (i.v.) into the lateral tail vein. […] All mice were euthanized 2 h post drug injection. Mice were anesthetized with isoflurane beforehand and their tails were briefly warmed to facilitate injections. All conjugates were administered as a single dose, as indicated for each experiment (4× or 8×). […]
In this analysis, 20×10 μm^2 or 10×10 μm^2 sized regions of interest (ROI) were randomly overlaid on images showing the vasculature, explicitly avoiding blood vessels. For FIG. 30A, the ROI was drawn around all Neun stained nucleuses detected. Intensity measurements and positions were then obtained for each ROI after it was separately overlaid on the image showing nanoconjugate fluorescence.
Fluorescence measurements were thus based on the anatomy of the cerebral vasculature rather than nanoconjugate labeling of whole sections or extracts of brain parenchyma and were therefore unbiased and intentionally avoiding the nanoconjugate load in the cerebral vasculature.
All nanoconjugate fluorescence measurements in brain parenchyma (e.g., FIGS. 14B-14C (1-3); 16B (1-3); 19B-19E; 20C-20D; and FIG. 22B) are presented as relative fluorescence intensities. […] Relative fluorescence measurements thus represent total fluorescence minus representative autofluorescence. […]

[6] = tested on: Brain (other hemisphere); conditions: 2 h, PBS background subtracted
[7] = tested on: blood-brain barrier (BBB); conditions: Israel et al., 2019; cited from earlier work
[8] = not given; remark: listed apart in the source
[9] = Zeta potential measurements (Zetasizer Nano ZS90); type: physicochemical; conditions: in PBS; voltage 150 mV
Description: Zeta Potential Measurements: Synthesized conjugates were characterized with respect to their ζ potential using a Zetasizer Nano ZS90 (Malvern Instruments, Malvern, UK). Ten microliter aliquots of nanoconjugate samples were diluted in 0.99 mL PBS, and the voltage applied was 150 mV. Data represent the mean of three measurements±their standard deviation.

Substance: PMLA/LLL/AP2/rhodamine [P/LLL/AP2]
- increase in tumor selectivity with the increase of the dose [1]: 2.4 fold
- Hydrodynamic diameter (volume mode) [2]: 4.45 nm
- PDI [2]: (0.39)
- PDI ([2]; listed as P/LLL/AP-2): 0.39
- average area per particle [3]: 0.42±0.72 μm^2
- Visibility of nanoconjugate around blood vessels in ex vivo brain slices [4]: visible around blood vessels for two hours and almost disappeared at 4 hours
- time at which nanoconjugate fluorescence could not be distinguished from background of brain parenchyma ([5]; 0.068 μmol/kg i.v.): 240 min
- time of maximal conjugate fluorescence in cortex parenchyma ([5]; 0.068 μmol/kg i.v.): 30 min
- fluorescence intensity in normal brain ([5]; dose 8×): 30 units
- Brain (other hemisphere) fluorescence ([6]; dose 1X): 2.1
- Brain (other hemisphere) fluorescence ([6]; dose 4X): 9.4
- serum concentration at 120 minutes (0.068 μmol/kg injection): 1.15e+08 µM
- serum drug concentration at 120 minutes post injection (0.068 μmol/kg injection): 115 µM
- serum half-life (i.v. 0.068 μmol/kg, single exponential decay fit): 1.28 h
- half-life of first decline in brain parenchyma [7]: > 2 h
- time independent plateau in parenchyma [7]: > 240 min
- estimated parenchyma concentration ([8]; cortex, 120 min, 0.068 μmol/kg injection): 0.049 ± 0.001 µmol/mL
- percentage of free serum drug detected in the brain ([8]; within 120 minutes after i.v. administration): ≥ 40%
- ζ potential [9]: −11.6 mV
